{
  "source": "patent US7005504",
  "about": "(Genentech, dated 2006)",
  "binders": {"B1": {"name": "chimeric 5.12.14 Fab (Fab, V domains shown)", "VH": "EVQLVESGGGLVPPGGSLKLSCAASGFIFSSYGMSWVRQTPGKSLELVATINNNGDSTYYPDSVKGRFTISRDNAKNTLYLQMSSLKSEDTAMFYCARALISSATWFGYWGQGTLVTVSA", "VL": "DIVMTQSQKFMSTSVGDRVSVTCKASQNVGTNVAWYQQKPGQSPKALIYSSSYRYSGVPDRFTGSGSGTDFTLTISHVQSEDLADYFCQQYNIYPLTFGPGTKLELRR"}, "B2": {"name": "6G4V11N35A F(ab')2 leucine zipper (other)", "light": "DIQMTQSPSSLSASVGDRVTITCRSSQSLVHGIGATYLHWYQQKPGKAPKLLIYKVSNRFSGVPSRFSGSGSGTDFTLTISSLQPEDFATYYCSQSTHVPLTFGQGTKVEIKRTVAAPSVFIFPPSDEQLKSGTASVVCLLNNFYPREAKVQWKVDNALQSGNSQESVTEQDSKDSTYSLSSTLTLSKADYEKHKVYACEVTHQGLSSPVTKSFNRGEC", "heavy": "not shown"}, "B3": {"name": "6G4V11N35A F(ab')2 modified with a single 40 kD branched PEG molecule (other)", "light": "B2 light", "heavy": "not shown", "modifications": "may carry PEG on a lysine or the N-terminus; site not defined", "notes": "one 40 kD branched PEG-succinimide (PEG2-NHS-40 KDa) per F(ab')2, on a primary amine; also called single 40 kD branched PEG-modified F(ab')2; branched(1)40 KDa-(N)-(Fab')2"}, "B4": {"name": "6G4V11N35A F(ab')2 modified with a single 20 kD linear PEG molecule (other)", "light": "B2 light", "heavy": "not shown", "modifications": "may carry PEG on a lysine or the N-terminus; site not defined", "notes": "one 20 kD linear PEG-succinimide (M-SPA-20000) per F(ab')2, on a primary amine; also called single 20 kD linear PEG-modified F(ab')2; linear(1)20 KDa-(N)-(Fab')2"}, "B5": {"name": "humanized 6G425 F(ab)-1 (Fab, V domains shown)", "VH": "EVQLVESGGGLVQPGGSLRLSCAASGYSFSSHYMHWVRQAPGKGLEWVGYIDPSNGETTYNQKFKGRFTISRDNSKNTLYLQMNSLRAEDTAVYYCARGDYRYNGDWFFDVWGQGTLVTVSS", "VL": "DIQMTQSPSSLSASVGDRVTITCRSSQSLVHGIGNTYLHWYQQKPGKAPKLLIYKVSNRFSGVPSRFSGSGSGTDFTLTISSLQPEDFATYYCSQSTHVPLTFGQGTKVEIKR", "notes": "Fab with human kappa subgroup I light chain and human IgG1 subgroup III heavy chain of phagemid pEMX1; unaltered CDR swap; also called version 1; V1"}, "B6": {"name": "6G4V11N35A Fab' modified with 40 kD linear PEG-maleimide (Fab, V domains shown)", "VH": "B5 VH with E6Q, I70L, L79A", "VL": "B5 VL with N35A", "modifications": "40 kD linear methoxy-PEG-maleimide on the free cysteine in the hinge region"}, "B7": {"name": "humanized 6G425 F(ab)-2 (Fab, V domains shown)", "VH": "B5 VH with F68A", "VL": "B5 VL", "notes": "template F(ab)-1; also called version 2"}, "B8": {"name": "humanized 6G425 F(ab)-8 (Fab, V domains shown)", "VH": "B5 VH with R38K, I70L, L79A", "VL": "B5 VL"}, "B9": {"name": "6G4V11N35E Fab (Fab, V domains shown)", "VH": "B5 VH with E6Q, I70L, L79A", "VL": "B5 VL with N35E"}, "B10": {"name": "humanized 6G425 F(ab)-3 (Fab, V domains shown)", "VH": "B5 VH with R72V", "VL": "B5 VL", "notes": "template F(ab)-1; also called version 3"}, "B11": {"name": "full length 6G4V11N35E IgG1 (antibody, V domains shown, not shown: a dimerising Fc or GST)", "VH": "B5 VH with E6Q, I70L, L79A", "VL": "B5 VL with N35E"}, "B12": {"name": "humanized 6G425 F(ab)-9 (humanized 6G4V11 Fab) (Fab, V domains shown)", "VH": "B5 VH with E6Q, I70L, L79A", "VL": "B5 VL"}, "B13": {"name": "6G4V11N35A Fab (Fab, V domains shown)", "VH": "B5 VH with E6Q, I70L, L79A", "VL": "B5 VL with N35A", "notes": "also called 6G4.2.5V11N35A Fab; Fab control"}, "B14": {"name": "full length 6G4V11N35A IgG1 (antibody, V domains shown, not shown: a dimerising Fc or GST)", "VH": "B5 VH with E6Q, I70L, L79A", "VL": "B5 VL with N35A"}, "B15": {"name": "chimeric 6G4.2.5 Fab (Fab, V domains shown)", "VH": "EIQLQQSGPELMKPGASVKISCKASGYSFSSHYMHWVKQSHGKSLEWIGYIDPSNGETTYNQKFKGKATLTVDTSSSTANVHLSSLTSDDSAVYFCARGDYRYNGDWFFDVWGAGTTVTVSS", "VL": "DIVMTQTPLSLPVSLGDQASISCRSSQSLVHGIGNTYLHWYLQKPGQSPKLLIYKVSNRFSGVPDRFSGSGSGTDFTLRISRVEAEDLGLYFCSQSTHVPLTFGAGTKLELKR"}},
  "key": {"[1]": {"biological_target": "T1, recombinant human IL-8, (ser-IL-8)72 (human, UniProt P10145 28-99, In some assays the protein was iodinated (125I on tyrosine) or coated on a plate. The letters are unchanged.)", "T1 sequence": "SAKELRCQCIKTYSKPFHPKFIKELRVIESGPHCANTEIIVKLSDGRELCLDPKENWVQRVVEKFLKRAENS", "test": "cell-based or functional assay"}, "[2]": {"biological_target": "human monomeric IL-8 (human)", "test": "cell-based or functional assay"}, "[3]": {"biological_target": "T1, recombinant human IL-8, (ser-IL-8)72", "test": "cell-based or functional assay", "remark": "listed apart in the source"}, "[4]": {"biological_target": "T2, rabbit IL-8 (rabbit, UniProt P19874 23-101, limits assumed)", "T2 sequence (looked up)": "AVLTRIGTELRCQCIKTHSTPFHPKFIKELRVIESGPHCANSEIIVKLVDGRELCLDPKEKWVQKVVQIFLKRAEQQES", "test": "cell-based or functional assay"}, "[5]": {"biological_target": "T1, recombinant human IL-8, (ser-IL-8)72", "test": "inhibition of 125I-IL-8 binding to IL-8 receptors on human neutrophils; the legend column has no head, the text calls the values of this figure IC50's"}, "[6]": {"biological_target": "T1, recombinant human IL-8, (ser-IL-8)72", "test": "125I-IL-8 neutrophil competition; reference not named in the sentence (chimeric F(ab) by Table 4)"}, "[7]": {"biological_target": "T1, recombinant human IL-8, (ser-IL-8)72", "test": "inhibition of 125I-IL-8 binding to the IL-8 receptors on human neutrophils (Bound/Total against cold ligand in nM)"}, "[8]": {"biological_target": "T1, recombinant human IL-8, (ser-IL-8)72", "test": "125I-IL-8 neutrophil competition, against F(ab)-1"}, "[9]": {"biological_target": "T3, rhesus IL-8 (rhesus, UniProt P67813 23-101, limits assumed)", "T3 sequence (looked up)": "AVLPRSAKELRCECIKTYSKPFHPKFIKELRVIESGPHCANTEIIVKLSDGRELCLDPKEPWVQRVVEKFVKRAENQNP", "test": "cell-based or functional assay"}, "[10]": {"biological_target": "T1, recombinant human IL-8, (ser-IL-8)72", "test": "inhibition of 125I-IL-8 binding to the IL-8 receptors on human neutrophils (Bound/Total against cold ligand in nM)", "remark": "listed apart in the source"}, "[11]": {"biological_target": "T2, rabbit IL-8", "test": "cell-based or functional assay", "remark": "listed apart in the source"}},
  "note": "Positions count from the first letter of the chain named. Like-named read-outs stand apart in the source and are kept apart here.",
  "data": [
    {"binder": "B1", "values": [
      {"measurement": "IC50 (4 parameter fit) of the inhibition of human IL-8 (100 nM) stimulated elastase release from human neutrophils", "setting": "[1]", "value": "0.643 molar ratio Fab:IL-8 (x axis; 100 nM IL-8)"}
    ]},
    {"binder": "B2", "values": [
      {"measurement": "average IC50, neutrophil chemotaxis", "setting": "[2]", "value": 1, "unit": "nM"},
      {"measurement": "average IC50, neutrophil chemotaxis", "setting": "[3]", "value": 1.5, "unit": "nM"},
      {"measurement": "average IC50, neutrophil chemotaxis", "setting": "[4]", "value": 4, "unit": "nM"}
    ]},
    {"binder": "B3", "values": [
      {"measurement": "IC50", "setting": "[5]", "value": 0.38, "unit": "nM"}
    ]},
    {"binder": "B4", "values": [
      {"measurement": "IC50", "setting": "[5]", "value": 0.296, "unit": "nM"}
    ]},
    {"binder": "B5", "values": [
      {"measurement": "fold reduction in binding affinity", "setting": "[6]", "value": 5.5, "unit": "fold"},
      {"measurement": "IC50 (read off the curve)", "setting": "[7]", "value": "~20", "unit": "nM"}
    ]},
    {"binder": "B6", "values": [
      {"measurement": "IC50, PMN chemotaxis", "setting": "[3]", "value": 3.7, "unit": "nM"}
    ]},
    {"binder": "B7", "values": [
      {"measurement": "fold decrease in IL-8 binding", "setting": "[8]", "value": "< 2", "unit": "fold"}
    ]},
    {"binder": "B8", "values": [
      {"measurement": "IC50, neutrophil chemotaxis", "setting": "[3]", "value": 12, "unit": "nM"}
    ]},
    {"binder": "B9", "values": [
      {"measurement": "IC50, neutrophil chemotaxis", "setting": "[3]", "value": "~1.2", "unit": "nM"}
    ]},
    {"binder": "B10", "values": [
      {"measurement": "fold decrease in IL-8 binding", "setting": "[8]", "value": "< 2", "unit": "fold"}
    ]},
    {"binder": "B11", "values": [
      {"measurement": "IC50, neutrophil chemotaxis", "setting": "[3]", "value": 6, "unit": "nM"},
      {"measurement": "IC50, neutrophil chemotaxis", "setting": "[4]", "value": 2, "unit": "nM"}
    ]},
    {"binder": "B12", "values": [
      {"measurement": "IC50, neutrophil chemotaxis", "setting": "[2]", "value": "~15", "unit": "nM"},
      {"measurement": "IC50, neutrophil chemotaxis", "setting": "[9]", "value": "~22", "unit": "nM"}
    ]},
    {"binder": "B13", "values": [
      {"measurement": "average IC50, neutrophil chemotaxis", "setting": "[2]", "value": 1, "unit": "nM"},
      {"measurement": "IC50, PMN chemotaxis", "setting": "[3]", "value": 0.8, "unit": "nM"},
      {"measurement": "average IC50, neutrophil chemotaxis", "setting": "[3]", "value": 2.7, "unit": "nM"},
      {"measurement": "average IC50, neutrophil chemotaxis", "setting": "[4]", "value": 5, "unit": "nM"},
      {"measurement": "IC50 (read off the curve)", "setting": "[10]", "value": "~1", "unit": "nM"}
    ]},
    {"binder": "B14", "values": [
      {"measurement": "IC50, neutrophil chemotaxis", "setting": "[3]", "value": 4, "unit": "nM"},
      {"measurement": "IC50, neutrophil chemotaxis", "setting": "[4]", "value": 4, "unit": "nM"}
    ]},
    {"binder": "B15", "values": [
      {"measurement": "IC50 (4 parameter fit) of the inhibition of human IL-8 (100 nM) stimulated elastase release from human neutrophils", "setting": "[1]", "value": "0.635 molar ratio Fab:IL-8 (x axis; 100 nM IL-8)"},
      {"measurement": "IC50 (4 parameter fit) of the inhibition of rabbit IL-8 (100 nM) stimulated elastase release from human neutrophils (absorbance 405 nM)", "setting": "[11]", "value": "1.04 molar ratio Fab:rIL-8 (x axis; 100 nM rIL-8)"}
    ]}
  ]
}
